Results published in publication PMC11374337 (2024).
Each block holds one molecule with its values, some of them ahead of it.

Key:
[1] = target: paxillin LIM2/3 tandem domain (aa380-499) (human) (UniProt P49023); test: NMR titration; 1H-15N HSQC, 250-300 μM 15N-labelled paxillin LIM2/3 (wt or 4A), unlabelled integrin β3 tail added; 298 K, 50 mM Na2HPO4, 150 mM NaCl, 0.1 mM ZnSO4, 1 mM DTT, 5% D2O, pH 7.5; global fit of CSPs
[2] = target: cytoplasmic tail of human integrin β1 (aa758-798) (human) (UniProt P05556); test: NMR titration; 1H-15N HSQC, 300 μM 15N-labelled integrin β tail, unlabelled paxillin LIM2/3 added; 298 K, 50 mM Na2HPO4, 150 mM NaCl, 0.1 mM ZnSO4, 1 mM DTT, 5% D2O, pH 6.2; global fit of CSPs to a one site binding model
[3] = target: cytoplasmic tail of human integrin β3 (aa748-788) (human) (UniProt P05106); test: as above
[4] = target: T1, ITGB3 (Homo sapiens (Human), UniProt P05106); test: NMR
T1 chain: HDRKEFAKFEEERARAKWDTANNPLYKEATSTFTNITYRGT

[5] = target: T2, ITGB1 (Homo sapiens (Human), UniProt P05556); test: NMR
T2 chain: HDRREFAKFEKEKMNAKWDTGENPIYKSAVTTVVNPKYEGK

Kd [1]: 532 µM
Molecule: cytoplasmic tail of human integrin β3 (aa748-788) (from UniProt P05106 748-788) (domain or fragment)

Kd [2]: 52 µM
Kd [3]: 528 µM
fraction bound at the end of the titration [3]: 70%
Molecule: paxillin LIM2/3 tandem domain (aa380-499) (from UniProt P49023-2 380-499) (domain or fragment)

Kd [4]: 528 µM
Kd [5]: 52 µM
B1: paxillin (protein)
chain: SPRCYYCNGPILDKVVTALDRTWHPEHFFCAQCGAFFGPEGFHEKDGKAYCRKDYFDMFAPKCGGCARAILENYISALNTLWHPECFVCRECFTPFVNGSFFEHDGQPYCEVHYHERRGS
